Numbering of substitutions follows the chain as printed.
Experiments:
[1] = system: Mouse colorectal carcinoma cell line CMT93; assay: In vivo antitumor effect, CMT93 subcutaneous transplant model; settings: 0.4 mg/kg, tail vein, on Day 7, male B6J mice
Method: The antitumor effects of the antibody-drug conjugates were evaluated by using animal models in which cells of a human tumor cell line had been transplanted into immunodeficient mice, or cells of a mouse tumor cell line had been transplanted into immunocompetent mice. 4 to 6 Week-old SCID mice (CB17/Icr-Prkdc[scid]/CrlCrlj, Jackson Laboratory Japan, Inc.), NSG mice (NOD.Cg-Prkdcscid Il2rgtm1Wjl/SzJ, Jackson Laboratory Japan, Inc.), or B6J mice (C57BL/6J, Jackson Laboratory Japan, Inc.) were habituated for 3 days or more under SPF conditions before experimental use. The mice were fed with sterilized solid feed and given sterilized tap water. The major and minor diameters of the transplanted tumors were measured twice a week with an electronic digital caliper (Mitutoyo Corporation), and the estimated tumor volume was calculated using the following formula. Estimated tumor volume (mm^3) = 1/2 × major diameter (mm) × [minor diameter (mm)]^2 All antibody-drug conjugates were diluted with ABS and administered into the tail vein at doses shown in each Example. In addition, ABS (vehicle) or control hIgG-PBD prepared in Reference Example 4 was administered as the control group, in a similar manner. 5 to 6 Mice were used per group in the experiment. To analyze the LRRC15 expression in mouse tumor models, immunohistochemical staining of LRRC15 was performed. […]

[2] = system: LRRC15-negative human lung carcinoma cell line EBC-1; assay: In vivo antitumor effect, EBC-1 subcutaneous transplant model; settings: tail vein, on Day 9, female SCID mice
Method: The antitumor effects of the antibody-drug conjugates were evaluated by using animal models in which cells of the human tumor cell line had been transplanted into immunodeficient mice. 4 to 6 Week-old SCID mice (CB17/Icr-Prkdc[scid]/CrlCrlj, Jackson Laboratory Japan, Inc.) were habituated for 3 days or more under SPF conditions before experimental use. The mice were fed with sterilized solid feed (FR-2, Funabashi Farms Co., Ltd.) and given sterilized tap water (prepared by adding a solution of 5 to 15 ppm sodium hypochlorite). The major and minor diameters of the transplanted tumors were measured twice a week with an electronic digital caliper ([…] Corporation), and the estimated tumor volume was calculated using the following formula. Estimated tumor volume (mm^3) = 1/2 × major diameter (mm) × [minor diameter (mm)]^2 All antibody-drug conjugates were diluted with ABS and administered into the tail vein at doses shown in each Example. In addition, ABS (vehicle) or control hIgG-PBD prepared in Reference Example 4 was administered as the control group, in a similar manner. 5 to 6 Mice were used per group in the experiment. LRRC15-negative human lung carcinoma cell line EBC-1 (JCRB) was suspended in PBS mixed with 50% Matrigel (Corning Incorporated), 1.0 × 10^6 cells were subcutaneously transplanted into the right flank of female SCID mice (Day 0), and random grouping was performed on Day 9. From publicly known information, it is known that in this tumor model, carcinoma cells are LRRC15 negative, and cells in the tumor stroma are LRRC15 positive (International Publication No. 2017/095805). On the day of grouping, a vehicle, the antibody-drug conjugate […]-PBD, […]-V1-PBD, or […]-V2-PBD prepared in Example 5 was administered into the tail vein at a dose of 0.4 mg or 0.2 mg/kg. The abscissa indicates the number of days, and the ordinate indicates estimated tumor volume, and the error bars indicate SEM values. […] The antitumor effects of the antibody-drug conjugates were evaluated by using animal models in which cells of a human tumor cell line had been transplanted into immunodeficient mice, or cells of a mouse tumor cell line had been transplanted into immunocompetent mice. 4 to 6 Week-old SCID mice (CB17/Icr-Prkdc[scid]/CrlCrlj, Jackson Laboratory Japan, Inc.), NSG mice (NOD.Cg-Prkdcscid Il2rgtm1Wjl/SzJ, Jackson Laboratory Japan, Inc.), or B6J mice (C57BL/6J, Jackson Laboratory Japan, Inc.) were habituated for 3 days or more under SPF conditions before experimental use. The mice were fed with sterilized solid feed and given sterilized tap water. The major and minor diameters of the transplanted tumors were measured twice a week with an electronic digital caliper (Mitutoyo Corporation), and the estimated tumor volume was calculated using the following formula. […]

B1: H02L01-PBD (conjugate)
heavy: EVQLVESGGGLVQPGGSLRLSCAASGFTFRDYYMAWVRQAPGKGLEWVSSIGFDESRTYYADSVKGRFTISRDDSKNTLYLQMNSLRAEDTAVYYCARHGVSYYSGDNWFAYWGQGTLVTVSSASTKGPSVFPLAPSSKSTSGGTAALGCLVKDYFPEPVTVSWNSGALTSGVHTFPAVLQSSGLYSLSSVVTVPSSSLGTQTYICNVNHKPSNTKVDKKVEPKSCDKTHTCPPCPAPEAAGGPSVFLFPPKPKDTLMISRTPEVTCVVVDVSHEDPEVKFNWYVDGVEVHNAKTKPREEQYNSTYRVVSVLTVLHQDWLNGKEYKCKVSNKALAAPIEKTISKAKGQPREPQVYTLPPSREEMTKNQVSLTCLVKGFYPSDIAVEWESNGQPENNYKTTPPVLDSDGSFFLYSKLTVDKSRWQQGNVFSCSVMHEALHNHYTQKSLSLSPGK
light: DIQMTQSPSSLSASVGDRVTITCKSSQGLLYSGDQKNYLAWYQQKPGKAPKLLIYWASTRQSGVPSRFSGSGSGTDFTLTISSLQPEDFATYYCQQYYDPPYTFGQGTKVEIKRTVAAPSVFIFPPSDEQLKSGTASVVCLLNNFYPREAKVQWKVDNALQSGNSQESVTEQDSKDSTYSLSSTLTLSKADYEKHKVYACEVTHQGLSSPVTKSFNRGEC
antitumor effect (estimated tumor volume) [1]: antitumor activity higher than that of the vehicle and the control hIgG-PBD
antitumor effect (estimated tumor volume) ([2]; 0.4 mg or 0.2 mg/kg): antitumor activity higher than that of the vehicle group

B2: H02L01-V1-PBD (conjugate)
heavy: B1 heavy with Y103K
light: B1 light
antitumor effect (estimated tumor volume) [1]: antitumor activity higher than that of the vehicle and the control hIgG-PBD
antitumor effect (estimated tumor volume) ([2]; 0.3 mg/kg, huM25-PBD at the same dose): antitumor activity higher than that of the vehicle and huM25-PBD
antitumor effect (estimated tumor volume) ([2]; 0.4 mg or 0.2 mg/kg): antitumor activity higher than that of the vehicle group

B3: H02L01-V2-PBD (conjugate)
heavy: B1 heavy with Y103R
light: B1 light
antitumor effect (estimated tumor volume) ([2]; 0.4 mg or 0.2 mg/kg): antitumor activity higher than that of the vehicle group

Source: patent EP4703474A1, “ANTI-LRRC15 ANTIBODY” (priority 2023, dated 2024)
